# Data reported in the supplement of paper PMC10567573.
# B1: RHOBTB3 (parent)
# chain: STTEGIQLAKELGATYLELHSLDD
# Variants of: B1
# Experiment: protein stability index of a GFP-peptide fusion (GPS, HEK-293T) (PSI 1-6); higher = more stable
# Details: c terminus: a fixed tail appended
# 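Further: lentivirally expressed fusions sorted by FACS into six bins by GFP to DsRed ratio, PSI derived from sequencing read proportions per bin multiplied by bin number.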
row,Variant,protein stability index
1,STTEGIQLAKELSATYLELHSLDD [G13S],3.35
2,STTEGIQLAKELAATYLELHSLDD [G13A],1.75
3,STTEVIQLAKELGATYLELHSLDD [G5V],3.98
4,STTEIIQLAKELGATYLELHSLDD [G5I],1.92
5,STTEHIQLAKELGATYLELHSLDD [G5H],3.26
6,STTEMIQLAKELGATYLELHSLDD [G5M],2.15
7,STTEDIQLAKELGATYLELHSLDD [G5D],2.49
8,STTEKIQLAKELGATYLELHSLDD [G5K],3.73
9,STTETIQLAKELGATYLELHSLDD [G5T],4.16
10,STTEGIQLAKELGATYLELHSLCD [D23C],1.87
11,STTEGIQLAKELGATYLELHSLID [D23I],2.07
12,STTEGIQLAKELGATYLELHSLND [D23N],3.13
13,STTEGIQLAKELGATYLELHSLFD [D23F],1.71
14,STTEGIQLAKELGATYLELHSLVD [D23V],2.29
15,STTEGIQLAKELGDTYLELHSLDD [A14D],2.87
16,STTEGIQLAKELGHTYLELHSLDD [A14H],4.1
17,STTEGIQLAKELGVTYLELHSLDD [A14V],3.85
18,STTEGIQLAKELGSTYLELHSLDD [A14S],4.02
19,STTEGIQLAKELGTTYLELHSLDD [A14T],4.18
20,STTEGIQLAKELGETYLELHSLDD [A14E],4.25
21,STTEGIQLAKELGRTYLELHSLDD [A14R],3.59
22,STTEGIQLAKELGKTYLELHSLDD [A14K],3.01
23,STTEGIQLAKELGWTYLELHSLDD [A14W],1.75
24,STTEGIQLAGELGATYLELHSLDD [K10G],1.71

row,Variant,protein stability index
1,STTEGIQLAVELGATYLELHSLDD [K10V],2.06
2,STTEGIQLAHELGATYLELHSLDD [K10H],3.15
3,STTEGIQLAPELGATYLELHSLDD [K10P],4.33
4,STTEGIQLAEELGATYLELHSLDD [K10E],4.35
5,STTEGIQLAAELGATYLELHSLDD [K10A],2.73
6,STTEGIQLANELGATYLELHSLDD [K10N],2.84
7,STTEGIQLAQELGATYLELHSLDD [K10Q],3.57
8,FTTEGIQLAKELGATYLELHSLDD [S1F],2.39
9,HTTEGIQLAKELGATYLELHSLDD [S1H],2.81
10,MTTEGIQLAKELGATYLELHSLDD [S1M],3.49
11,WTTEGIQLAKELGATYLELHSLDD [S1W],2.74
12,STTEGIQLAKELGATYNELHSLDD [L17N],4.6
13,STTEGIQLAKELGATYFELHSLDD [L17F],3.27
14,STTEGIQLAKELGATYIELHSLDD [L17I],2.9
15,STTEGIQLAKELGATYPELHSLDD [L17P],4.88
16,STTEGIQLAKELGATYAELHSLDD [L17A],5.04
17,STTEGIQLAKELGATYQELHSLDD [L17Q],4.74
18,STTEGIQLAKELGATYGELHSLDD [L17G],5.66
19,STTEGIQLAKELGATYTELHSLDD [L17T],4.82
20,STTEGIQLAKELGATYEELHSLDD [L17E],4.73
21,SDTEGIQLAKELGATYLELHSLDD [T2D],4.43
22,SLTEGIQLAKELGATYLELHSLDD [T2L],2.21
23,SWTEGIQLAKELGATYLELHSLDD [T2W],1.58
24,SMTEGIQLAKELGATYLELHSLDD [T2M],2.8

row,Variant,protein stability index
1,SITEGIQLAKELGATYLELHSLDD [T2I],2.07
2,STTEGEQLAKELGATYLELHSLDD [I6E],4.71
3,STTEGLQLAKELGATYLELHSLDD [I6L],2.87
4,STTEGSQLAKELGATYLELHSLDD [I6S],4.39
5,STTEGRQLAKELGATYLELHSLDD [I6R],3.6
6,STTEGGQLAKELGATYLELHSLDD [I6G],4.9
7,STTEGHQLAKELGATYLELHSLDD [I6H],4.62
8,STTEGIQLAKELGATYLRLHSLDD [E18R],2.96
9,STTEGIQLAKELGATYLDLHSLDD [E18D],4.36
10,STTEGIQLAKELGATYLCLHSLDD [E18C],2.62
11,STTEGIQLAKELGATYLYLHSLDD [E18Y],2.57
12,STTEGIQLAKELGATYLILHSLDD [E18I],1.86
13,STTEGIQLAKELGATYLALHSLDD [E18A],3.22
14,STTEGIQLAKELGATYLHLHSLDD [E18H],3.07
15,STTEGIQLAKELGATYLLLHSLDD [E18L],2.41
16,STTEGIQLAKELGATYLNLHSLDD [E18N],4.02
17,STTEGIQLAKELGATYLMLHSLDD [E18M],2.66
18,STTEGIQLAKELGAVYLELHSLDD [T15V],2.17
19,STTEGIQLAKELGAWYLELHSLDD [T15W],2.02
20,STTEGIQLAKELGANYLELHSLDD [T15N],4.72
21,STTEGIQLAKELGAHYLELHSLDD [T15H],2.69
22,STTEGIQLAKELGAIYLELHSLDD [T15I],1.99
23,STTEGIQLAKELGADYLELHSLDD [T15D],4.41
24,STTEGIQLAKELGAEYLELHSLDD [T15E],4.87

row,Variant,protein stability index
1,STTEGIQLAKELGATYLELESLDD [H20E],3.45
2,STTEGIQLAKELGATYLELWSLDD [H20W],1.93
3,STTEGIQLAKELGATYLELYSLDD [H20Y],2.44
4,STTEGIQLAKGLGATYLELHSLDD [E11G],3.86
5,STTEGIQLAKFLGATYLELHSLDD [E11F],2.56
6,STTEGIQLAKWLGATYLELHSLDD [E11W],1.73
7,STTEGIQLAKPLGATYLELHSLDD [E11P],3.92
8,STTEGIQLAKKLGATYLELHSLDD [E11K],2.94
9,STTEGIQLAKCLGATYLELHSLDD [E11C],3.42
10,STTEGIQLAKALGATYLELHSLDD [E11A],1.53
11,STTEGIQLAKVLGATYLELHSLDD [E11V],2.87
12,STWEGIQLAKELGATYLELHSLDD [T3W],1.84
13,STAEGIQLAKELGATYLELHSLDD [T3A],2.94
14,STVEGIQLAKELGATYLELHSLDD [T3V],3.19
15,STYEGIQLAKELGATYLELHSLDD [T3Y],2.83
16,STDEGIQLAKELGATYLELHSLDD [T3D],3.97
17,STREGIQLAKELGATYLELHSLDD [T3R],3.03
18,STMEGIQLAKELGATYLELHSLDD [T3M],2.31
19,STGEGIQLAKELGATYLELHSLDD [T3G],4.01
20,STPEGIQLAKELGATYLELHSLDD [T3P],3.56
21,STQEGIQLAKELGATYLELHSLDD [T3Q],2.84
22,STFEGIQLAKELGATYLELHSLDD [T3F],2.29
